Laboratory results published in PMC11749594, “Tracing TMEM106B fibril deposition in aging and Parkinson’s disease with dementia brains” (Life Medicine, 2024).

Biological target: the molecule itself
Assay: cryo-EM structure; fibrils extracted from the frontal cortex of case 1 of PDD, pretreated with pronase for 30 min; helical reconstruction at 3.5 Å

B1: TMEM106B fibril (Type 1) extracted from the frontal cortex of case 1 of PDD (domain or fragment, human (endogenous in brain tissue), UniProt Q9NUM4 120-254, looked up)
chain: SIDVKYIGVKSAYVSYDVQKRTIYLNITNTLNITNNNYYSVEVENITAQVQFSKTVIGKARLNNITIIGPLDMKQIDYTVPTVIAEEMSYMYDFCTLISIKVHNIVLMMQVTVTTTYFGHSEQISQERYQYVDCG
modifications: four potentially glycosylated Asn residues
notes: Transmembrane protein 106B (TMEM106B), human, fibril core of residues 120-254 (luminal domain); Amyloid fibril with many stacked copies of the chain; the atomic model was built as three layers; Residues 120-254 are the ordered core seen by cryo-EM; also called Transmembrane protein 106B fibril; brain-extracted TMEM106B fibril; source: extracted from postmortem human brain (frontal lobe, case 1 of …)
binding result: binds
